Experimental data: patent US20200168293A1 (UCB, published 2020)
Substitutions are numbered along the chain they refer to.

How the values were obtained:
[1] = biological target: T1, Keap1 (Kelch 1-6 domains, AA 314-611) (Homo sapiens (Human), UniProt Q14145 321-611); test: SPR, captured Fab, Keap1 analyte
T1 construct: Kelch domain expressed in E. coli with an N-terminal His tag and TEV site; the same preparation is described for SPR; also called Kelch-like ECH-associated protein 1; Kelch domain of Keap1
Method: Surface plasmon resonance (SPR) experiments were carried out on a Biacore 3000 system (GE Healthcare) and detailed experimental details are given below. Briefly, supernatant containing expressed Fab (or sham transfected supernatant control) was injected over immobilized anti-human F(ab′)₂ polyclonal on a CM5 chip. A second injection of a Keap1 titration or a zero analyte control allowed association and dissociation kinetics to be monitored. Chip regeneration completed each sensorgram cycle. Sensorgrams were corrected for baseline drift, caused by slow dissociation of captured Fab, by subtraction of an adjacent zero analyte control cycle. […] Specificity of Fab binding to Keap1 was assessed by the same protocol by titration of an Nrf2 peptide analogue against a constant concentration of Keap1.
Surface plasmon resonance (SPR) experiments were carried out on a Biacore 3000 system (GE Healthcare) using reagents from the same manufacturer. […] Initial binding of Keap1 to expressed Fabs was assessed by injecting 50 μl supernatant, diluted 1 in 5 in running buffer, over the reference and anti-F(ab′)₂ flow cells at a flow rate of 10 μl/min, followed by a 150 μl injection of 0, 500 or 5000 nM Keap1 in running buffer at a flow rate of 30 μl/min.

TGFβ3 [2] = biological target: T2, TGFβ3 (UniProt P10600 301-412); test: SPR (Biacore), Fab immobilized on the chip
T2 construct: also called TGFb3
T2 sequence (looked up): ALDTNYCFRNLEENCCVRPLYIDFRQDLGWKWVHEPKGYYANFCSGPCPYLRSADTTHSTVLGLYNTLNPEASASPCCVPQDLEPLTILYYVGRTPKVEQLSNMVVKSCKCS

TGFβ1 [3] = biological target: T3, TGFβ1 (UniProt P01137 279-390); test: SPR (Biacore), Fab immobilized on the chip
T3 construct: also called TGFb1

TGFβ3 [4] = biological target: T2, TGFβ3; test: cell-based or functional assay
TGFβ1 [5] = biological target: T3, TGFβ1; test: cell-based or functional assay
TGFβ2 = biological target: T4, TGFβ2 (UniProt P61812 303-414); test: cell-based or functional assay
T4 sequence (looked up): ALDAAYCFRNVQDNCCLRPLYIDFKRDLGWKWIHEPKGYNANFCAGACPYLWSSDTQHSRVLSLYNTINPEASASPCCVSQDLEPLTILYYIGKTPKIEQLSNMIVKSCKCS

[6] = biological target: T1, Keap1 (Kelch 1-6 domains, AA 314-611); test: Biacore competition assay (FIG. 33)
Method: (§1) Surface plasmon resonance (SPR) experiments were carried out on a Biacore 3000 system (GE Healthcare) using reagents from the same manufacturer. […] The latter was immobilised to the activated carboxymethyl dextran surface via amine coupling as follows: a fresh mixture of 50 mM N-hydroxysuccimide and 200 mM 1-ethyl-3-(3-dimethylaminopropyl)-carbodiimide was injected for 5 minutes at a flow rate of 10 μl/min, followed by 50 μg/ml anti-human F(ab′)₂ in 10 mM acetate pH 5.0 buffer for 5 min at the same flow rate. Finally the surface was deactivated with a 10 minute pulse of 1 M ethanolamine.HCl pH 8.5. […] Initial binding of Keap1 to expressed Fabs was assessed by injecting 50 μl supernatant, diluted 1 in 5 in running buffer, over the reference and anti-F(ab′)₂ flow cells at a flow rate of 10 μl/min, followed by a 150 μl injection of 0, 500 or 5000 nM Keap1 in running buffer at a flow rate of 30 μl/min. […] Association and dissociation kinetics of Keap1 binding to captured Fabs were determined by the same protocol over at least 8 values of the following concentrations: 75, 100, 150, 250, 350, 500, 750, 1000, 1500, 2500, 3500 and 5000 nM. Zero Keap1 controls were interspersed between the former cycles in order to correct for baseline drift and sham transfected supernatant was assessed at each Keap1 concentration in order to determine and correct for non-specific binding of Keap1.

[7] = biological target: T1, Keap1 (Kelch 1-6 domains, AA 314-611); test: Biacore competition assay, % inhibition against [Ab] M, fitted with log concentration vs normalized response/variable slope; neither the sheet nor the text names the surface-bound partner
Method: as §1

TGFβ3 [8] = biological target: T2, TGFβ3; test: SPR (Biacore)
TGFβ1 [9] = biological target: T3, TGFβ1; test: SPR (Biacore)

T3 sequence (P01137 279-390 limits assumed): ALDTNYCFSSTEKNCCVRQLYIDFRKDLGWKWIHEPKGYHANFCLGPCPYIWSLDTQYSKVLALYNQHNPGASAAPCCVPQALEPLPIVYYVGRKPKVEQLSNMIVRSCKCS
T1 sequence (Q14145 other isoform, or with tags, fused parts or gaps limits assumed): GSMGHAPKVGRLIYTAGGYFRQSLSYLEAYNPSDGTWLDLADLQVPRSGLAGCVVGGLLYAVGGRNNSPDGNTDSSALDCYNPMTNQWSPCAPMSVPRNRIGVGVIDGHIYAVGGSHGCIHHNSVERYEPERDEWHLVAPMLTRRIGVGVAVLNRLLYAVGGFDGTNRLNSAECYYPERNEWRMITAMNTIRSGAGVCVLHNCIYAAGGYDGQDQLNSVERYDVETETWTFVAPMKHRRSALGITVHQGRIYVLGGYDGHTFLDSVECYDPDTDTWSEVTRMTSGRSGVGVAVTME

B1: G56 Fab (Fab, V domains shown)
VH: EVQLVESGGGLIRPGGSLRLSCKGSGFIFENFGFGWVRQGPGKGLEWVSGTNWNGGDSRYGDSVKGRFTISRDNSNNFVYLQMNSLRPEDTAIYYCARGTDYTIDETGERAQGSGTFWYFDVWGRGTLVTVSS
VL: EIVLTQSPATLSVSPGERATLSCRASQNVHPRYFAWYQQKRGQSPRLLIHSGSTRAAGIADRFSGGGSGMHFTLTITRVEPEDFAVYFCQQYGGSPYTFGQGTRVELR
notes: Scaffold 3U4B
Question: For B1, which “Fraction of Fab binding sites occupied @ 500 nM Keap1” value [1] is on record?
Answer: The value was 0.023 fraction.

B2: G56.1 Fab (Fab, V domains shown)
VH: B1 VH with R59Q
VL: B1 VL with Q27R
notes: Scaffold 3U4B
Question: B2 was tested. Which “Fraction of Fab binding sites occupied @ 500 nM Keap1” value [1] did it give?
Answer: Its value is 0.027 fraction.

B3: Fab184 (Fab, V domains shown)
VH: QVQLQQSGPELVRPGVSVKISCKGSGYTFIAEMLHWVKQSHAESLEWIGLIIPAVGITYYNQKFKDKATMTVDIASSTAYLELARLTSEDSAIYYCARSWAEGLFFDYWGQGTLVT
VL: DIVMTQTPKFLLVSAGDKVTITCKASQSVSNALTWYQQKPGQSPKLLIYYASNRYTGVPDRFTGSGYGTDFTFTISTVQAEDLAVYFCQQDYGAPPTFGGGTKVEIKR
notes: Fab; Scaffold 3MXW; also called designed Fab
Question: What does the source list for B3?
Answer: Kd (TGFβ3 [2]): 32.9 nM; Kd (TGFβ1 [3]): 106 nM; TGFβ3 IC50 in the reporter gene assay (n = 2) (TGFβ3 [4]): 10.6 nM; TGFβ1 IC50 in the reporter gene assay (n = 2) (TGFβ1 [5]): 52.8 nM; TGFβ2 IC50 in the reporter gene assay (n = 2) (TGFβ2): 36.8 nM

B4: LS146-scFv (scFv)
scFv: EVQLVESGGGLVQPGGSLRLSCAASGFAISASSIHWVRQAPGKCLEWVASIDPETGETLYAKSVAGRFTISADTSKNTAYLQMNSLRAEDTAVYYCARAYAGDGVYYADVWGQGTLVTVSSGGGGSGGGGSGGGGSGGGGSDIQMTQSPSSLSASVGDRVTITCRASQSVSSAVAWYQQKPGKAPKLLIYSASSLYSGVPSRFSGSRSGTDFTLTISSLQPEDFATYYCQQSYSFPSTFGCGTKVEIKRTENLYFQ
notes: VH-(Gly4Ser)4-VL followed by a TEV site and His10 tag; also called LS146 formatted as a single chain Fv; scFv-LS146
Question: B4 was tested. Which “fold lower potency than its Fab form (LS146 Fab)” value [6] did it give?
Answer: The value was 3 fold.

Question: And the IC50 [7]?
Answer: Its IC50 is 79 nM.

B5: Fab design 186 (Fab, V domains shown)
VH: EVQLVQSGAEVKKPGESLKISCKGSGYSFTAYWISWVRQMPGKGLEWMGRIIPSVSITNYSPSFQGHVTISADKAISTAYLQWSSLKASDTAMYYCARLLMQGAMLTFDSWGQGTLVT
VL: DIQMTQSPSSLSASVGDRVTITCRASQSIGLALAWYQQKPGKAPKLLIYAASSLQSGVPSRFSGSGSGTDFTLTISSLQPEDFATYYCQQGNTLSYTFGQGTKVEIKR
notes: Fab; Scaffold 3NAC
Question: Does B5 bind (TGFβ3 [8])?
Answer: Result: no binding

Question: Does B5 bind (TGFβ1 [9])?
Answer: Result: no binding
